This note sets out measurements from patent publication US20200199647A1 (published 2020).

The target of assay [1] is T1, PP1c (human PP1cα amino acids 7-330, N-terminal Thio6/His6 tag) (human, UniProt P62136 7-330).
T1 construct: range 7-330; Recombinant, from E. coli with GroEL/GroES and MnCl2; In thermophoresis it was labelled with the Monolith NT Red-NHS kit; also called protein phosphatase 1c; Thio6/His6-PP1c
Briefly: thermophoresis (MST), labelled PP1c.

Assay [2] concerns the target T1, PP1c (human PP1cα amino acids 7-330, …). As to the kind of experiment: thermophoresis, labelled PP1c, unlabelled fragment titrated.

T1 sequence (P62136 other isoform, or with tags, fused parts or gaps): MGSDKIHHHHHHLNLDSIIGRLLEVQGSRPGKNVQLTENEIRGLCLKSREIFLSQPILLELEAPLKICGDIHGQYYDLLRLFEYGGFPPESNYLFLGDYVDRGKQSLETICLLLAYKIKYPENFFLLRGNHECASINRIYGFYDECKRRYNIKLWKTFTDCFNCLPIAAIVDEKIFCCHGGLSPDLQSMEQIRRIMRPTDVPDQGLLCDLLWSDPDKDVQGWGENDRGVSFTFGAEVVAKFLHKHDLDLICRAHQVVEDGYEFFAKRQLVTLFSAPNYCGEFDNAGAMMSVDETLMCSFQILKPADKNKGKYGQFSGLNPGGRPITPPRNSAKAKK

B1: R15B^C (human PPP1R15B amino acids 636-698, N-terminal MBP-tag, C-terminal His6-tag) (other, not shown: large carriers)
chain: VKRKKVTFLEEVTEYYISGDEDRKGPWEEFARDGCRFQKRIQETEDAIGYCLTFEHRERMFNRHHHHHH
notes: range 636-698; also called R15B^636-698; carboxy-terminal fragment of R15B
On to B1, for which the binding result in assay [1] is “binds”.

B2: R15B^N (human PPP1R15B amino acids 340-635, N-terminal MBP-tag, C-terminal His6-tag) (other, not shown: large carriers)
chain: RDNPTQFVPAAGDIPGNTQESTEEKIELLTTEVPLALEEESPSEGCPSSEIPMEKEPGEGRISVVDYSYLEGDLPISARPACSNKLIDYILGGASSDLETSSDPEGEDWDEEAEDDGFDSDSSLSDSDLEQDPEGLHLWNSFCSVDPYNPQNFTATIQTAARIVPEEPSDSEKDLSGKSDLENSSQSGSLPETPEHSSGEEDDWESSADEAESLKLWNSFCNSDDPYNPLNFKAPFQTSGENEKGCRDSKTPSESIVAISECHTLLSCKVQLLGSQESECPDSVQRDVLSGGRHTHHHHHHH
notes: range 340-635; also called R15B^340-635; amino-terminal fragment of R15B
For B2, the binding result in assay [2] is “no binding”.
